# Legend:
# Test in all cases: virus attachment assay at 4° C. on transfected L929 cells, immunostaining, Mander's co-localization coefficient
# [1] = molecular target: human P-selectin glycoprotein ligand-1 (hPSGL1) on L929 cells (human) (UniProt Q14242)
# [2] = molecular target: human scavenger receptor class B member 2 (hSCARB2) on L929 cells (human) (UniProt Q14108)
# [3] = molecular target: human tryptophanyl-tRNA synthetase (hWARS) on cells (human) (UniProt P23381)
# Chain of UniProt P23381 (P23381 2-471): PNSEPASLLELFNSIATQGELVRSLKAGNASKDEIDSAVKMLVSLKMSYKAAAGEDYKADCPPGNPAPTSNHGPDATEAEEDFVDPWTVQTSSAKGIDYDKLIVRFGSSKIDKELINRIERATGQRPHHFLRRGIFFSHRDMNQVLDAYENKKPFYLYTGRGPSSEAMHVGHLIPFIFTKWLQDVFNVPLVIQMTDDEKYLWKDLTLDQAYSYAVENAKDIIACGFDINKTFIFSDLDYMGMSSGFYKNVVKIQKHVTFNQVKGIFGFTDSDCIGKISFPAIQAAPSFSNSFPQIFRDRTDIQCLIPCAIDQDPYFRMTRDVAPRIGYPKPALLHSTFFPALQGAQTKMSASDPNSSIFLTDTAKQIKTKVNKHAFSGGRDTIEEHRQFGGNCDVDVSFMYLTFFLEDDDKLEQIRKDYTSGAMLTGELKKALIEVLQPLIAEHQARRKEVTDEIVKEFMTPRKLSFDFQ
# Chain of UniProt Q14242 (Q14242 42-412): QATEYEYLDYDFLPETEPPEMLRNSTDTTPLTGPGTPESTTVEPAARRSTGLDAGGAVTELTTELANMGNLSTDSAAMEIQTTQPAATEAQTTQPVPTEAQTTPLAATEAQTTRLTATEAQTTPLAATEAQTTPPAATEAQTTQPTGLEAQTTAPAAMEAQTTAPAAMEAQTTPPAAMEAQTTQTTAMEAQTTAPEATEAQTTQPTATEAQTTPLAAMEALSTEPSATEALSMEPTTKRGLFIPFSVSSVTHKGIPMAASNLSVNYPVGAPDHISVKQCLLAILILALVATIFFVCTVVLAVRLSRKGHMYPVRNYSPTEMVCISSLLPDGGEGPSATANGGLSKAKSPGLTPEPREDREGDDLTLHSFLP
# Chain of UniProt Q14108 (Q14108 whole entry): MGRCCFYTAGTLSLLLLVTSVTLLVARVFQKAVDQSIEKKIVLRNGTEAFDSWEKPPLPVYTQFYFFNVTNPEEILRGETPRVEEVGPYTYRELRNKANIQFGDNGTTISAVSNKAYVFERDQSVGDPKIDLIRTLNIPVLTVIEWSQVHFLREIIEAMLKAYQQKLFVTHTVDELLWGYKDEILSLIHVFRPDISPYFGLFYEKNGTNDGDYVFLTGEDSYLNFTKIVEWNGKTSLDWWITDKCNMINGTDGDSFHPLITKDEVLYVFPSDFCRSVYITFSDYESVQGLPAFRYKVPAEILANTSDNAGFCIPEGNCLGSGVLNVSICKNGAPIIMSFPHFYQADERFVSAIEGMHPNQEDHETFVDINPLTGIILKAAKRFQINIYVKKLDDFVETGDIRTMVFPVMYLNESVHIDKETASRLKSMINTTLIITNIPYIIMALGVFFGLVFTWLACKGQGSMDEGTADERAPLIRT
substance,measurement,setting,value
enterovirus 71 (EV-A71) virus,co-localization coefficient (R),[1],0.501
same,co-localization coefficient (R),[2],0.432
same,co-localization coefficient (R),[3],0.655

# From patent US20190358326A1
